# Measurements from publication PMC7136269, “CXXC5 as an unmethylated CpG dinucleotide binding protein contributes to estrogen-mediated cellular proliferation”.
# T1: FL-CXXC5 (human, UniProt Q7LFL8 1-322)
# T1 sequence: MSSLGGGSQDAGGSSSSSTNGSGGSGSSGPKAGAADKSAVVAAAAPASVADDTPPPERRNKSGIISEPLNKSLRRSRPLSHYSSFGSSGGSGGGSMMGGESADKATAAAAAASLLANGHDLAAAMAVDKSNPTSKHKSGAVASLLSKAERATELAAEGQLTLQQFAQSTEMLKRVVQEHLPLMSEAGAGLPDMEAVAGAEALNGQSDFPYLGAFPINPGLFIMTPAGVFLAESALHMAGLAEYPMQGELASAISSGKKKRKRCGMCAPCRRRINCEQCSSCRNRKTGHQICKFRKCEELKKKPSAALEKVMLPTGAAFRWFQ
# T2: CXXC-D (CXXC domain of CXXC5) (human, UniProt Q7LFL8 250-309)
# T2 sequence: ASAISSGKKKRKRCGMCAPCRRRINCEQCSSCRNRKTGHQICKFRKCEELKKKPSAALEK
# Columns and labels:
# [1] = molecular target: T1, FL-CXXC5; assay: ITC; ITC: 10 uM protein, 300 uM DNA, 25 C, VP-ITC, one-site fit; DNA annealed in 20 mM Tris pH 7.5, 150 mM NaCl; protein eluted in 20 mM Tris pH 7.5, 150 mM NaCl, 1; details: protein: recombinant, tags: 6xHis removed by TEV (pET28a-MHL), blunt
# [2] = molecular target: T2, CXXC-D (CXXC domain of CXXC5); assay: as above; details: protein: recombinant; tags: 6xHis removed by TEV (pET28a-MHL); blunt
# [3] = molecular target: T1, FL-CXXC5; assay: ITC; similar affinity to N1; ITC: 10 uM protein, 300 uM DNA, 25 C, VP-ITC, one-site fit; DNA annealed in 20 mM Tris pH 7.5, 150 mM NaCl; protein eluted in 20 mM Tris pH 7.5, 150 mM NaCl, 1; details: protein: recombinant; tags: 6xHis removed by TEV (pET28a-MHL); blunt; self-complementary
Binder,binding result ([1]; self-complementary),binding result [1],other results
"mCG DNA, distinct flanks (dsDNA, 5-methyl-C at position 8 (central mCG; self-complementary, so both strands)) DNA 1: GAGAGACCGGTCTCTC DNA 2: GAGAGACCGGTCTCTC",no binding,,
CG DNA (dsDNA) DNA 1: GTGATACCGGATCAGT DNA 2: ACTGATCCGGTATCAC,,binds,binding result [2]: binds
AT DNA (dsDNA) DNA 1: GTGATACATGATCAGT DNA 2: ACTGATCATGTATCAC,,no binding,
"AT DNA, distinct flanks (dsDNA) DNA 1: GAGAGACATGTCTCTC DNA 2: GAGAGACATGTCTCTC",no binding,,
"CG DNA, distinct flanks (dsDNA) DNA 1: GAGAGACCGGTCTCTC DNA 2: GAGAGACCGGTCTCTC",,,binding result [3]: binds
"mCG DNA (dsDNA, 5-methyl-C at position 8 (GTGATACmCGGATCAGT); lower strand presumably also methylated at its central CpG) DNA 1: GTGATACCGGATCAGT DNA 2: ACTGATCCGGTATCAC",,no binding,
